{
  "source": "the DeepSol protein solubility set",
  "data": [
    {"test": "soluble on expression in E. coli; label from the status in PepcDB or PDB records", "values": [
      {"sequence": "MKILALDTSALVAAVAVMEDDRLLAEYMLNHRKTHSQQLVAMIREVLASLELAPKDIDVFAASTGPGSFTGLRIGVTTVKAMAYATGKPVVSVPTLDAIAYNIPMNSFTICPVMDARNNQVYTALYDWDENGQKRITDYMGIPVSELVQLIKDMGKKVIFAGDAAKMHEEYFTQELGDDCKIAPGNLLLQRASSVARLAYLKAMNNELESCFDMVPFYLRKSQAEREYEKKLCKDC", "soluble on expression in E. coli": "not soluble"},
      {"sequence": "MAGDRKRGFIRPDEDYALIEPQRWGLPDYGDSKEKKAKQTAFNYDPSWVPNFDEPEEEQALELTEEQIELIKQGAYQEGLYQGQEAGFKQGYDKGKEEGLQAGHAEGLELGKAEGVSAGQEFIQQQVEVFMNLANQFAQPLELMNAQVEKQLVDMVLCLVKEVVHVEVQTNPQIILDTVKQSVEALPISGHPITLHLNPEDVAIIRSAYGEEDLDCRNWTLVSEPSLNRGDVQIEAGESSINYRMEERIKSVLHSFCGANRHQEGELEHHHHHH", "soluble on expression in E. coli": "soluble"},
      {"sequence": "MSDVKSVIESGRAVLGIEFGSTRIKAVLIGEDHAPIATGAHDWENMLVDGIWTYSLDMIWEGISDCYSKMAQDAKEKYGVTIKKLAAIGISGMMHGYLPFDEEDNLLVPFRTWRNTITGEAAAELTEVLGFNIPQRWSIAHLYQAILNKEEHVSKISYFTTLAGYIHWQLTGEKVMGVGEASGMFPIDSKTRDYDAAMLDKFAALDKVKEYPWDIRDILPKVLTAGEKAGTLTEEGAKRLDVSGNLESGILLAPPEGDAGTGMVATNSVAVRTGNVSAGTSVFAMVVLEKALKAVHEELDMVTTPSGDAVAMVHCNNCTSDLNAWVGLFKEFSELFGMDIDMNDIYGKLYNNALTADKDCGGLVAFNLFSGEPVIGLNEGRPMFARKPDARMNLANFMRTHLYASLATLKIGCDILFKEEKVKVDTLYGHGGLFKTKGVGQSILAAAMDAPVAVMETAGEGGPWGMAVLAAYMVNKADGEPLEKYLSDRVFNGEKGIVMQPDPDDVKGFDEYINTYKAAIEAERAMVKALPLLEHHHHHH", "soluble on expression in E. coli": "soluble"},
      {"sequence": "LSLQSEIDSLCAVSHELLHLGLDGEPIYSDRFRQLNTDVYHRCEHLFGSHGRTLEEEASLCIALLTGYNATIYNHGDKEDKIQSVLNRSWDLLDTLPVSLLKCRLLVACYAEVFD", "soluble on expression in E. coli": "not soluble"},
      {"sequence": "MTRMKYLVAAATLSLFLAGCSGSKEEVPDNPPNEIYATAQQKLQDGNWKQAITQLEALDNRYPFGPYSQQVQLDLIYAYYKNADLPLAQAAIDRFMRLNPTHPNIDYVMYMRGLTNMALDDSALQGFFGVDRSDRDPQHARAAFNDFSKLVRSYPNSQYTTDATKRLVFLKDRLAKYEYSVAEYYTARGAWVAVVNRVEGMLRNYPDTQATRDALPLMENAYRQMQLNAQADKVAKIIAANSKNT", "soluble on expression in E. coli": "not soluble"},
      {"sequence": "MDPLLTVLKERMRACQRRVSDRPRRQVVAIEWIDPPMASGNWIPELIALAGGENMLGTAGKHSPYIEWSTLLAIDPEVILVMPCGFDLERTRQELDQALQTYPQWQQLRALQTGQLYILDGNAYFNRPGPRLVDSLEILVEILHPCPLEHHHHHH", "soluble on expression in E. coli": "soluble"},
      {"sequence": "MNNKKPVCAEGMVKMEKKSLLILGTASHVGKSSVVTAICRILSRSYRVAPFKAQNMSLNSWITKDGKEIGIAQAIQAKAAGTEPTADMNPVLLKPKGDCVSQVVLLGEPYADKSAGQYYDSIEEMHAVLKGALERLWKEHDIIVMEGAGGAAEINLYERDIVNVGTARLTKAPIILVGDIERGGVFASLYGTIALLPEDVRKNVKGFIINKFRGDIEILRPGLKQLEDKTGIPVLGVLPHFKLRIPSEDSVSLGDKEDSKAEKEIEVAVIRLPRISNFTDFEPLEGLVKVRYVDINEELGNPDAIMIPGTKNTVNDLLDLRASGMDKKIQAFKGKVPIFGICGGYQMLGRTIFDSGVENGVEAEFEGLGLLDIGTRFGEYKKRTVQVTKKVNGYGPILRPIDGEEIKGYEIHMGVTDSNRTVFGDDGAIDEDGFVIGTYLHGLFDNRNIRNALVRYLYEKKGLEYEPDEAISENDAYEELANVVEQNIDMEKLFEIAGV", "soluble on expression in E. coli": "not soluble"},
      {"sequence": "MSQKTDAPLESYEVNGATIAVLPEEIDGKICSKIIEKDCVFYVNMKPLQIVDRSCRFFGSSYAGRKAGTYEVTKISHKPPIMVDPSNQIFLFPTLSSTRPQCGWISHVHVKEFKATEFDDTEVTFSNGKTMELPISYNSFENQVYRTAWLRTKFQDRIDHRVPKRQEFMLYPKEERTKMIYDFILRELGERYLEHHHHHH", "soluble on expression in E. coli": "not soluble"},
      {"sequence": "MAHHHHHHMELNKLCSFLLRGNISHCENAPTGENAPKGENAQTGENAPKSENPPKSEHSQALFQDASGGKNNDSILDVIKKIPINPFIDSNEDLNKYKYGVEKKKIQRYTGVQVYEEEDKDHKKNQPVDYPFPVSKSVVFEKNKVNKSEDRININYSNIASDLYPEEGFKTPNRKKHFSSDWEMLLAHNHGLYNFKNTDHNTIVNKDMYALNTENDIRNKLNLYVERINVDNPNDACKYLAIEEYKCLLTHSFHMNPDVSNQKCVKWFNEYMQCKWDEHKLNYGYNYIENRRNKKSKAYIAAPDYQYS", "soluble on expression in E. coli": "not soluble"},
      {"sequence": "MSLRFVFDIDGTLCFDGRLIDQTIIDTLLQLQHDGHELIFASARPIRDLLPVLPSVFHQHTLIGANGAMISQQSKISVIKPIHTDTYHHILKIIQKYELDYIIDDDWNYAAQLDAENAIFERLDPHKLASCIDVANIDTPIKIILLNIDPAQITTILDELNKYHQELEMIHHSNEYNIDITAQNINKYTALQYIFDADVKYIAFGNDHNDIFMLQHASSGYIIGPSEAYTHAILKLDKIKHINNNTQAICKVLKSYKEGHHHHHH", "soluble on expression in E. coli": "soluble"},
      {"sequence": "MLVPLYDVMCRALGINGKTAGSAYSGEQQVDVGREVKVQFMTSNNIDMVWEFRSAGDQLVVHPGAVNQMVFYARNPSDKPMTAQAIPSIAPAEAAAYFHKTECFCFTQQVLQPGESIEMPVRFIVDRDLPKDVRHVTLAYTLFDI", "soluble on expression in E. coli": "soluble"},
      {"sequence": "MSFGLVGTVNNNGWKSPFRHETKYRAGYDKFKYYKTHYRGAKKAGTNDDRWRWTAWFDLDFAHQKIVLIERGELHRQADLKKSDPATNETSKTVWGSIKEKLLQNVNNLHSEKGVFLWFRQSGFTTTRN", "soluble on expression in E. coli": "soluble"},
      {"sequence": "MNDVVLSCKNVSKKYTEFKTDIAILKDVNLEIKKGEKVAILGLSGSGKTTLLNVLGGLDKCSAGEVYLMGERFDNQSVNKRAKMRNKHLGFIYQLHHLLPEFTAIENVMIPLAITKKYTKKESIKLANEILKKVGLDHRADHKPAELSGGERQRVAIARALVTNPNCILADEPTGNLDSQRSESIFALMQQLSDDFGTSFVIVTHDEKLASRMNKIYRLVDGELELVINSN", "soluble on expression in E. coli": "not soluble"},
      {"sequence": "MGSDKIHHHHHHMINNYLERQIKENFPYQPTFEQEIAVKSLSEFLLSTLADEVFILRGYAGTGKTSLVGALVKTMDQLQQKAVLLAPTGRAAKVFSSYAGHPAFTIHKKIYRQQSFSNETSNFSINDNLATNTLFIVDEASMISNEGLSGSMFGTGRLLDDLIQFVYSGQGCRLLLMGDTAQLPPVGEELSPALFADALKGYGLEVREVDLTQVVRQIQESGILWNATQLRQLIAEDNCYSLPKIKITGFPDIKMVPGTELIDAITSCYDHDGMDETIVICRSNKRANLYNNGIRAQILWREDELNTGDMLMIAKNNYYWTEQYKEMDFIANGEIAVVRRVRKTREMYGFRFAEVTLRFPDQNDFELDANLLLDTLHSDSPALPKVDNDRLFYTILEDYADISNKRDRMKKMKADPHYNALQVKYAYAITCHKAQGGQWQNVFLDQGYMTDEYLTPDYFRWLYTAFTRATKTLYLVNYPKEQIL", "soluble on expression in E. coli": "not soluble"},
      {"sequence": "MSYERRKTREVSVGTVKIGGENPISIQSMTNTDTRDADATIAQIKRLEEAGCDIVRVAVPDIKAAKNIAKIKSSVNIPIIADIHFDYKLALEAIKQGVDGIRINPGNIGSIERVKMVVEKCKERNLKIRIGVNGGSLEKELLKKYGSATAEALVESAMGHIKILEDLDFHNIVISLKSSDIYKTVDAYELISKKVDYPLHIGITESGSVHKGTIKSSIGVGALLLKGIGDTVRISLTGDPVEEVIVGKQILRSLGLLNDKIKVISCPTCGRCNIDLISVVNEVEEKIGSMEKNITVAIMGCAVNGPGEAREADIGIAGGKGEGLLFKKGEIVRMIDGNKLVDELLEEIEKL", "soluble on expression in E. coli": "not soluble"},
      {"sequence": "MKRSAINDILGHTRQFFSQHDVHLPPFASFSPAQWQQLDTAAWEEVFDLKLGWDVTAFGRNNFAAHGLTLFTLRNGSAKGMPYVKCYAEKIMHVRDAQVTPMHFHWRKREDIINRGGGNLIVELWNADSNEQTADSDITVVIDGCRQKHTAGSQLRLSPGESICLPPGLYHSFWAEAGFGDVLVGEVSSVNDDDHDNHFLQPLDRYNLIDEDEPAQLVLCNEYRQFR", "soluble on expression in E. coli": "soluble"}
    ]}
  ]
}
